The source of these data is the supplement of paper PMC10567573.

First the molecules themselves.
B1: EPB41L3 (parent)
chain: SELGDYDPDECGSDYISEFRFAPN
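Further: lentivirally expressed fusions sorted by FACS into six bins by GFP to DsRed ratio, PSI derived from sequencing read proportions per bin multiplied by bin number.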

This series covers variants of B1. The series can be described thus: protein stability index of a GFP-peptide fusion (GPS, HEK-293T) (PSI 1-6); higher = more stable. As to conditions: c terminus: a fixed tail appended.
With SELGDYDPDPCGSDYISEFRFAPN [E10P], the protein stability index is 2.04.

As for SELGDYDPDFCGSDYISEFRFAPN [E10F], the protein stability index worked out at 1.55.

With SELGDYDPDSCGSDYISEFRFAPN [E10S], the protein stability index was determined as 1.85.

Consider SELGDYDPDMCGSDYISEFRFAPN [E10M], for which the protein stability index stood at 1.75.

As to SELGDYDPDGCGSDYISEFRFAPN [E10G], the protein stability index was 1.78.

On to SELGDYDPDACGSDYISEFRFAPN [E10A], for which the protein stability index worked out at 1.88.

As to SELGDYDPDTCGSDYISEFRFAPN [E10T], the protein stability index came out at 1.85.

In the case of SELGDYDPDLCGSDYISEFRFAPN [E10L], the protein stability index worked out at 1.61.

Consider SELGDYDPDCCGSDYISEFRFAPN [E10C], for which the protein stability index amounted to 2.38.

Turning to SELGDYDPDDCGSDYISEFRFAPN [E10D], the protein stability index is 1.81.

As for SELGDYDPDRCGSDYISEFRFAPN [E10R], the protein stability index was 2.26.

As to SELGDYDPDICGSDYISEFRFAPN [E10I], the protein stability index was 1.45.

On to SELGDYDPDVCGSDYISEFRFAPN [E10V], for which the protein stability index is 2.06.

On to SELGDYDPDNCGSDYISEFRFAPN [E10N], for which the protein stability index came out at 1.9.

As to SELGDYDPDKCGSDYISEFRFAPN [E10K], the protein stability index came out at 1.85.

For SELGDYDPDHCGSDYISEFRFAPN [E10H], the protein stability index stood at 1.5.

Consider SELGDYDPDQCGSDYISEFRFAPN [E10Q], for which the protein stability index is 1.84.

As to SRLGDYDPDECGSDYISEFRFAPN [E2R], the protein stability index was found to be 1.85.

As to SVLGDYDPDECGSDYISEFRFAPN [E2V], the protein stability index was found to be 2.04.

For the variant SDLGDYDPDECGSDYISEFRFAPN [E2D], the protein stability index is 1.79.

Turning to SGLGDYDPDECGSDYISEFRFAPN [E2G], the protein stability index amounted to 1.03.

For the variant SLLGDYDPDECGSDYISEFRFAPN [E2L], the protein stability index was found to be 1.77.

Consider SALGDYDPDECGSDYISEFRFAPN [E2A], for which the protein stability index is 1.61.

As for SYLGDYDPDECGSDYISEFRFAPN [E2Y], the protein stability index was found to be 2.07.

As for SQLGDYDPDECGSDYISEFRFAPN [E2Q], the protein stability index was found to be 1.9.

Turning to SILGDYDPDECGSDYISEFRFAPN [E2I], the protein stability index turned out to be 1.7.

For the variant STLGDYDPDECGSDYISEFRFAPN [E2T], the protein stability index stood at 1.56.

With SNLGDYDPDECGSDYISEFRFAPN [E2N], the protein stability index amounted to 2.03.

As for SMLGDYDPDECGSDYISEFRFAPN [E2M], the protein stability index came to 1.81.

As for SHLGDYDPDECGSDYISEFRFAPN [E2H], the protein stability index was 1.9.

SKLGDYDPDECGSDYISEFRFAPN [E2K]: the protein stability index is 1.94.

For the variant SWLGDYDPDECGSDYISEFRFAPN [E2W], the protein stability index was found to be 1.77.

For the variant SSLGDYDPDECGSDYISEFRFAPN [E2S], the protein stability index worked out at 1.68.

For the variant SPLGDYDPDECGSDYISEFRFAPN [E2P], the protein stability index stood at 2.54.

Take SFLGDYDPDECGSDYISEFRFAPN [E2F]: the protein stability index was 2.14.

Turning to SCLGDYDPDECGSDYISEFRFAPN [E2C], the protein stability index was 2.19.

Turning to SELDDYDPDECGSDYISEFRFAPN [G4D], the protein stability index was 2.35.

Take SELNDYDPDECGSDYISEFRFAPN [G4N]: the protein stability index was 1.9.

On to SELMDYDPDECGSDYISEFRFAPN [G4M], for which the protein stability index was 2.12.

On to SELFDYDPDECGSDYISEFRFAPN [G4F], for which the protein stability index came out at 1.79.

For the variant SELIDYDPDECGSDYISEFRFAPN [G4I], the protein stability index amounted to 1.95.

On to SELRDYDPDECGSDYISEFRFAPN [G4R], for which the protein stability index was determined as 2.67.

With SELWDYDPDECGSDYISEFRFAPN [G4W], the protein stability index was 1.7.

Take SELSDYDPDECGSDYISEFRFAPN [G4S]: the protein stability index is 2.19.

Regarding SELEDYDPDECGSDYISEFRFAPN [G4E], the protein stability index came out at 2.43.

With SELCDYDPDECGSDYISEFRFAPN [G4C], the protein stability index came to 1.94.

With SELYDYDPDECGSDYISEFRFAPN [G4Y], the protein stability index came to 2.12.

In the case of SELLDYDPDECGSDYISEFRFAPN [G4L], the protein stability index was found to be 2.

As to SELKDYDPDECGSDYISEFRFAPN [G4K], the protein stability index was determined as 2.18.

In the case of SELPDYDPDECGSDYISEFRFAPN [G4P], the protein stability index is 2.23.

Regarding SELQDYDPDECGSDYISEFRFAPN [G4Q], the protein stability index was found to be 2.

As to SELADYDPDECGSDYISEFRFAPN [G4A], the protein stability index is 2.56.

With SELTDYDPDECGSDYISEFRFAPN [G4T], the protein stability index worked out at 2.39.

With SELHDYDPDECGSDYISEFRFAPN [G4H], the protein stability index worked out at 1.67.

On to SELVDYDPDECGSDYISEFRFAPN [G4V], for which the protein stability index worked out at 2.06.

For the variant SELGDRDPDECGSDYISEFRFAPN [Y6R], the protein stability index turned out to be 1.84.

For the variant SELGDADPDECGSDYISEFRFAPN [Y6A], the protein stability index turned out to be 2.46.

As for SELGDHDPDECGSDYISEFRFAPN [Y6H], the protein stability index came out at 1.73.

As for SELGDMDPDECGSDYISEFRFAPN [Y6M], the protein stability index was 1.98.

Consider SELGDSDPDECGSDYISEFRFAPN [Y6S], for which the protein stability index worked out at 2.11.

As to SELGDDDPDECGSDYISEFRFAPN [Y6D], the protein stability index turned out to be 2.49.

Turning to SELGDPDPDECGSDYISEFRFAPN [Y6P], the protein stability index stood at 2.13.

Regarding SELGDTDPDECGSDYISEFRFAPN [Y6T], the protein stability index was found to be 1.97.

Consider SELGDCDPDECGSDYISEFRFAPN [Y6C], for which the protein stability index came to 2.27.

Turning to SELGDEDPDECGSDYISEFRFAPN [Y6E], the protein stability index came out at 2.37.

Turning to SELGDGDPDECGSDYISEFRFAPN [Y6G], the protein stability index came out at 2.48.

SELGDLDPDECGSDYISEFRFAPN [Y6L]: the protein stability index was determined as 2.19.

For SELGDFDPDECGSDYISEFRFAPN [Y6F], the protein stability index came to 2.01.

SELGDWDPDECGSDYISEFRFAPN [Y6W]: the protein stability index amounted to 2.31.

SELGDKDPDECGSDYISEFRFAPN [Y6K]: the protein stability index amounted to 2.17.

Consider SELGDVDPDECGSDYISEFRFAPN [Y6V], for which the protein stability index stood at 2.1.

SELGDNDPDECGSDYISEFRFAPN [Y6N]: the protein stability index turned out to be 2.15.

For the variant SELGDIDPDECGSDYISEFRFAPN [Y6I], the protein stability index was 2.06.

In the case of SELGDQDPDECGSDYISEFRFAPN [Y6Q], the protein stability index was determined as 2.11.

As for SELGFYDPDECGSDYISEFRFAPN [D5F], the protein stability index came to 1.68.

For the variant SELGMYDPDECGSDYISEFRFAPN [D5M], the protein stability index is 1.71.

On to SELGPYDPDECGSDYISEFRFAPN [D5P], for which the protein stability index stood at 2.35.

SELGLYDPDECGSDYISEFRFAPN [D5L]: the protein stability index worked out at 1.92.

Turning to SELGHYDPDECGSDYISEFRFAPN [D5H], the protein stability index is 1.79.

On to SELGRYDPDECGSDYISEFRFAPN [D5R], for which the protein stability index is 2.05.

With SELGCYDPDECGSDYISEFRFAPN [D5C], the protein stability index is 2.06.

Regarding SELGSYDPDECGSDYISEFRFAPN [D5S], the protein stability index came out at 1.75.

As for SELGGYDPDECGSDYISEFRFAPN [D5G], the protein stability index was found to be 2.26.

As to SELGQYDPDECGSDYISEFRFAPN [D5Q], the protein stability index worked out at 1.75.

With SELGWYDPDECGSDYISEFRFAPN [D5W], the protein stability index was determined as 1.74.

Consider SELGVYDPDECGSDYISEFRFAPN [D5V], for which the protein stability index worked out at 1.51.

On to SELGEYDPDECGSDYISEFRFAPN [D5E], for which the protein stability index worked out at 1.7.

As to SELGNYDPDECGSDYISEFRFAPN [D5N], the protein stability index came out at 1.99.

Take SELGIYDPDECGSDYISEFRFAPN [D5I]: the protein stability index is 1.87.

SELGKYDPDECGSDYISEFRFAPN [D5K]: the protein stability index is 2.17.

Regarding SELGAYDPDECGSDYISEFRFAPN [D5A], the protein stability index came out at 1.96.

As to SELGTYDPDECGSDYISEFRFAPN [D5T], the protein stability index was found to be 2.03.

Take SELGYYDPDECGSDYISEFRFAPN [D5Y]: the protein stability index came to 2.09.

SEYGDYDPDECGSDYISEFRFAPN [L3Y]: the protein stability index worked out at 1.9.
